Measured values reported in publication PMC9288159, “Identification of a guanine-specific pocket in the protein N of SARS-CoV-2”.

Target: SARS-CoV-2 N protein C-terminal domain (NCTD) (SARS-CoV-2, UniProt P0DTC9 256-364)
Assay: EMSA; […]; binding buffer not stated ([…]
Conditions: protein: recombinant; tags: N-terminal His6-TEV site (pET28a); chain copies: 2; label: 5' IRDye-800CW

Work on CGGUUUCGCCG (ssRNA) [Oligo-G (SL5a apical region)] yielded a Kd of 32 ± 5 nM.
